Reference: the nanobody polyreactivity screen of Harvey et al. (2022)

Experiment: yeast display, Sf9 membrane polyspecificity reagent, FACS + sequencing; frameworks hold sequencing errors
Method in brief: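 Sorting gates, low and high (top ~1%), were placed on anti-HA fluorescence to track expression and on streptavidin fluorescence to track reagent binding. A clone's polyreactivity label is taken from the gate it came out of. The reagent was 10% biotinylated, detergent-solubilized Sf9 membrane, applied for 1 hour at 4 °C to galactose-induced yeast display cells.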

| Sequence | polyreactivity (PSR sort gate) |
| --- | --- |
| QVQLVESGGGLVQAGGSLRLSCAASGRIFGRNAMGWYRQAPGNERELVAAINFGGTSTYYADSVKGRFTISRDNAKNTVYLQMNSLKPEDTAVYYCAARSRQDNFYRSYNSWGQGTQVTVSS | high polyreactivity |
| QVQLVESGGGLVQAGGSLRLSCAASGRIFGRNTMGWYRKAPGKERELVASIRSGGRTYYADSVKGRFTISRDNAKNTVYLEMNSLKPEDTAVYYCAADNRKSSSSGYDYWGQGTQVTVSS | low polyreactivity |
| QVQLVESGGGLVQAGGSLRLSCAASGRIFGRYAMGSYRQAPGKERELVAGINSGSTSYADSVRGRFTISRDNAKNTVYLQMNSLKPEDTAVYYCARGPRYRGGWDTFRGFDYWGQGTQVTVSS | low polyreactivity |
| QVQLVESGGGLVQAGGSLRLSCAASGRIFGRYAMGWYRQAPGKERELVAAISSGTSTNYADSVKGRFTISRDNAKNTVYLQMNSLKPEDTAVYYCAVVLYRHWWYDYWGQGTQVTVSS | high polyreactivity |
| QVQLVESGGGLVQAGGSLRLSCAASGRIFGRYAMGWYRQAPGKERELVAAISSSGGTTYYADSVKGRFTISRDKAKNTVYLQMNSLKPEDTAVYYCAKRGYYYGYDYWGQGTQVTVSS | high polyreactivity |
| QVQLVESGGGLVQAGGSLRLSCAASGRIFGRYAMGWYRQAPGKERELVASITRRGGSTYYADSVKGRFTISRDNAKNTVYLQMNSLKPEDTAVYYCAAGGFSWEGDSWGQGTEVTVSS | high polyreactivity |
| QVQLVESGGGLVQAGGSLRLSCAASGRIFGRYAMGWYRQAPGKERELVAVISARGARTYYADSVKGRFTISRDNAKNTVYLQMNSLKPEDTAVYYCAVDQYATDDYWGQGTQVTVSS | high polyreactivity |
| QVQLVESGGGLVQAGGSLRLSCAASGRIFGRYAMGWYRQEPGKERELVASISWSGDSTYYADSVKGRFTISRDNAKNTVYLQMNSLKPEDTAVYYCNADPFIRTWYNYGYWGQGTQVTVSS | low polyreactivity |
| QVQLVESGGGLVQAGGSLRLSCAASGRIFGRYVMGWYRQAPGKERELVAAITSRDDSTYYADSVKGRFTISRDNAKNTVYLQMTSLKPEDTAVYYCAATWGRGYDYWGQGTQVTVSS | high polyreactivity |
| QVQLVESGGGLVQAGGSLRLSCAASGRIFGSNAMGWYRQAPGKERELVATITKNGTSTYYADSVKGRFTISRDNAKNTVYLQMNSLKPEDTAVYYCARAPLRYSSRYEYWGQGTQVTVSS | low polyreactivity |
| QVQLVESGGGLVQAGGSLRLSCAASGRIFGSYAMGWYRQAHGKERELVAAIRWSGGSTYYADSVKGRFTISRDNAKNTVYLQMNSLKPEDTAVYYCAKTRTGYCFSYGYWGQGTQVTVSS | high polyreactivity |
| QVQLVESGGGLVQAGGSLRLSCAASGRIFGSYAMGWYRQAPWKERELVAAINWRGGSTFYADSVKGRFTISRDNAKNTVYLLMNSLKPEDTAVYYCARSGYRQSGDYWGQGTQVTVSS | low polyreactivity |
| QVQLVESGGGLVQAGGSLRLSCAASGRIFGSYVMGWYRQAPGKEMELVATISWSGGSTYYADSVKGRFTISRDNAKNTVYLQMNSLKPEDTAVYYCAAVSRYSHSPYHYDYWGQGTQVTVSS | high polyreactivity |
| QVQLVESGGGLVQAGGSLRLSCAASGRIFGSYVMGWYRQAPGKERELVAAISRRGGSTYYADSVKGRFTISRDNAKNTVYLQMNSLKPEDTAVDYCAAEFSPSSNPYDYWGQGTQVTVSS | high polyreactivity |
| QVQLVESGGGLVQAGGSLRLSCAASGRIFGTNAMGWYRQAPGKERELVAAISRSGGSTYYADSVKGRFTISRDNSKNTVYLQMNSLKPEDTAVYYCATDGRHTYYYWGQGTQVTVSS | high polyreactivity |
| QVQLVESGGGLVQAGGSLRLSCAASGRIFGTNAMGWYRQAPGKERELVATITRGGGNTYYADSVKGRFTISRDNAKNTVYLQMNSLKPEDTAVYYCAAKFHRFAWYSHYDYWGQGTQVTVSS | low polyreactivity |
| QVQLVESGGGLVQAGGSLRLSCAASGRIFGTNAMGWYRQAPGKERELVATITRGGGNTYYADSVKGRFTISRDNAKNTVYLQMNSLKPEDTAVYYCAAYDSVQKYWILGFDYWGQGTQVTVSS | low polyreactivity |
| QVQLVESGGGLVQAGGSLRLSCAASGRIFGTNSIGWYIQAPRKERELVSAISSSTSTNYADSVKGRFTISRDNAKNTVYLLMYSLKRDDTAFYYFDADELRTDWDYAQGYDYWGQGTQVTVSS | low polyreactivity |
| QVQLVESGGGLVQAGGSLRLSCAASGRIFGTYAMGWYRQAPGKERELVAAITQSGGRTYYADSVKGRFTISRDNAKNTVYLQMNSLKPEDTAVYYCNKVTYRGIGLGYDYWGQGTQVTVSS | high polyreactivity |
| QVQLVESGGGLVQAGGSLRLSCAASGRIFGVNAMGRYRQAPGKERELVAAIDWSDGSTYYADSVKGRFTISRDNAKNTVYLQMNSLKPEDTAVYYCAALPSFLAAQYGDDYWGQGTQVTVSS | low polyreactivity |
| QVQLVESGGGLVQAGGSLRLSCAASGRIFGVNAMGWYRQAPGKERELVAAIRYSGGSTYYADSVKGRFTISRDNAKNTVYLQMNSLKPEDTAVYYCAKARYTYSWSFGYWGQGTQVTVSS | low polyreactivity |

| Sequence | polyreactivity (PSR sort gate) |
| --- | --- |
| QVQLVESGGGLVQAGGSLRLSCAASGRIFGVYAMGLYRQAPGKERELVAGITYSGGSTYYADSVKGRFTISRDNAKNTVYLQMNSLKPEDTAVYYCARYHWYYRVSKSDSWGQGTQVTVSS | high polyreactivity |
| QVQLVESGGGLVQAGGSLRLSCAASGRIFGVYAMGWYRQAPGKEREFVASITRGGGRTYYADSVKGRFTISRDNAKNTVYLQMNSLKPEDTAVYYCNAVVNSYPYYYWGQGTQVTVSS | high polyreactivity |
| QVQLVESGGGLVQAGGSLRLSCAASGRIFGVYAMGWYRQAPGKERELVAAISEGGGSTNYADSVKGRFSISRDNAKNTVYLQMNSLKPEDTAVYYCAATYRTGVRRYYSWGQGTQVTVSS | low polyreactivity |
| QVQLVESGGGLVQAGGSLRLSCAASGRIFGVYAMGWYRQAPGKERELVAAITYRGASTYADSVKGRFTISRDNAKNTVYLQMNSLNPEDTAVYYCAAEPGSRSYGGDYWGQGTQVTVSS | high polyreactivity |
| QVQLVESGGGLVQAGGSLRLSCAASGRIFGWNAMGWYRQAPGKERELVASIRSGGRTNYADSVKGRFTISRDNAKNTVYLQMNSLKPEDTAVYYCAVGPYYQSTQIYDYWGQGTQVTVSS | low polyreactivity |
| QVQLVESGGGLVQAGGSLRLSCAASGRIFGWNAMGWYRQAPGKERELVATITDGTSTNYADSVKGRFTISRDNAKNTVYLQMYSLKPVDTAVYYCAKRVVTSLYKPDGVKYDYWGQGTQVTVSS | high polyreactivity |
| QVQLVESGGGLVQAGGSLRLSCAASGRIFGWYAMGGYRQAPGKERELVAAITSGGRTKYADSVKGRLTISRDNAKNTVYLQMNSLKPEDTAVYYCAARPQISSFDGLYYWGQGTQVTVSS | high polyreactivity |
| QVQLVESGGGLVQAGGSLRLSCAASGRIFGWYAMGWYRQAPGKERELVAAISWSGGSTYADSVKGRFTISRDNAKNTVYLQMNSLKPEDTAVYYCAADVAYVEYDYWGQGTQVTVSS | low polyreactivity |
| QVQLVESGGGLVQAGGSLRLSCAASGRIFGYAMGWCRQAPRKERELVAAITSSGGRTYYADSVKGRFTISRDNAKNTVYLQMNSLKPEDTAVYYCAKKWPVYRSYDYWGQGTQVTVSS | high polyreactivity |
| QVQLVESGGGLVQAGGSLRLSCAASGRIFGYNAMGWYRQAPGKERELVAAISSSGGSTYYADSVKGRFTISRDNAKNTVYLQMNSLKPEDTAVYYCAARRVTRTTVYRYQYYYWGQGTQVTVSS | high polyreactivity |
| QVQLVESGGGLVQAGGSLRLSCAASGRIFGYNAMGWYRQAPGKERELVAAITQSGGTTYYADSVKGRFTISRDYAKNTVYLQMNSLKPEDTAVYYCARGTRYPNNPFDYWGLGTQVTVSS | high polyreactivity |
| QVQLVESGGGLVQAGGSLRLSCAASGRIFGYNAMGWYRQAPGKERELVAALSWNGGSTYYADSVKGRFTISRDNAKNTVYLQMNSLKPEDTAVYYCNADPSDRRYPHTWTKMGYWGQGTQVTVSS | low polyreactivity |
| QVQLVESGGGLVQAGGSLRLSCAASGRIFGYNTMGWYRQAPGNERELVATITGAGSTNYADSVKGLFTISRDNAKNTVYLQMNSLKPEDTAVYYCAASVRWPRVSQRARYGYYYWGQGTQVTVSS | high polyreactivity |
| QVQLVESGGGLVQAGGSLRLSCAASGRIFGYTMGWYRQAPGKERELVAAISKSGGSTYYADSVKGRFTISRDNAKNTVYLQMNSLIPEDTAVYVCNKPQRILYDYWGQGSQVTVSS | high polyreactivity |
| QVQLVESGGGLVQAGGSLRLSCAASGRIFGYTMGWYRQAPGKERELVAAISKSGGSTYYADSVKGRFTISRDNAKNTVYLQMNSLKPEDTAVYYCNKPQRILYDYWGQGTQVTVSS | high polyreactivity |
| QVQLVESGGGLVQAGGSLRLSCAASGRIFGYYALGLSRQAPGKERELVAAINSGSRTYYADSVKGRFTISRDNAKNTVYLQMNSLKPEDTAVYYCAKVGRGNNYWGQGTQVTVSS | high polyreactivity |
| QVQLVESGGGLVQAGGSLRLSCAASGRIFGYYAMEWNRQAPGKERELVATITFGGGSTYYADSVKGRFTISRDKAKNTVYLQMNSLKPEDTAVSFCAAEGVHYDGDYGTGYDYWGQCTQVTVSS | low polyreactivity |
| QVQLVESGGGLVQAGGSLRLSCAASGRIFGYYAMGWSRPAPGKERELVATITFGGVSTYYADSVKGRFTISRDNAKNNVYLQMNSLKPEDTGVYYCAADSGYLGIYGDEYSWGQGTQVTVSS | low polyreactivity |
| QVQLVESGGGLVQAGGSLRLSCAASGRIFGYYAMGWYRQAPGKERELVAAIDSSGGSTTYADSVKGRFTISRDYAKNTVYLQMNSLKPEDTAVYYCNAGYALRSGPWYYYELDYWGQGTQVTVSS | low polyreactivity |
| QVQLVESGGGLVQAGGSLRLSCAASGRIFGYYAMGWYRQAPGKERELVATIRGGGSTNYADSVKGRCTISRDNAKNTVFLQMNSLKPEDTAVYYCAKPCAKWRGFDYWGQGTQVTVSS | low polyreactivity |
